Read-outs that look alike come from different tables or passages of the source.
T1: TNFR2 ECD-Fc (human, UniProt P20333)
T1 construct: Fc region, C-terminal fusion partner; also called TNFR2 ECD-hFc; Ichor Bio ICH4022
T1 sequence (TNFR2 ECD-Fc fusion chain): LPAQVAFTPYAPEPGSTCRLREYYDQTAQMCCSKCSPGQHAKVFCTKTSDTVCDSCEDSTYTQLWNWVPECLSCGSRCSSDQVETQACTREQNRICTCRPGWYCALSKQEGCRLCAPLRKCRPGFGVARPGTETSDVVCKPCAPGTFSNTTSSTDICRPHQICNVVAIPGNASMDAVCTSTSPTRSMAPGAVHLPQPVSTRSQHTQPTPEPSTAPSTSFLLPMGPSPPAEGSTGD

B1: recombinant human LIGHT (Acro Bio LIT-H5242) (ligand)
chain: LIQERRSHEVNPAAHLTGANSSLTGSGGPLLWETQLGLAFLRGLSYHDGALVVTKAGYYYIYSKVQLGGVGCPLGLASTITHGLYKRTPRYPEELELLVSQQSPCGRATSSSRVWWDSSFLGGVVHLEAGEKVVVRVLDERLVRLRDGTRSYFGAFMV
notes: Bought protein; also called hLIGHT; Tumor Necrosis Factor Ligand Superfamily Member 14
B2: recombinant human FASL (Acro Bio HAL-H5241) (ligand)
chain: PSPPPEKKELRKVAHLTGKSNSRSMPLEWEDTYGIVLLSGVKYKKGGLVINETGLYFVYSKVYFRGQSCNNLPLSHKVYMRNSKYPQDLVMMEGKMMSYCTTGQMWARSSYLGAVFNLTSADHLYVNVSELSLVNFEESQTFFGLYKL
notes: Bought protein; also called hFASL; FAS Ligand
B3: recombinant human TL1A (Acro Bio TLA-H5244), plate bound (ligand)
chain: LKGQEFAPSHQQVYAPLRADGDKPRAHLTVVRQTPTQHFKNQFPALHWEHELGLAFTKNRMNYTNKFLLIPESGDYFIYSQVTFRGMTSECSEIRQAGRPNKPDSITVVITKVTDSYPEPTQLLMGTKSVCEVGSNWFQPIYLGAMFSLQEGDKLMVNVSDISLVDYTKEDKTFFGAFLL
notes: Bought protein; also called hTL1A; Tumor Necrosis Factor Ligand Superfamily Member 15
B4: DcR3-hFc (Fc fusion)
chain: VAETPTYPWRDAETGERLVCAQCPPGTFVQRPCRRDSPTTCGPCPPRHYTQFWNYLERCRYCNVLCGEREEEARACHATHNRACRCRTGFFAHAGFCLEHASCPPGAGVIAPGTPSQNTQCQPCPPGTFSASSSSSEQCQPHRNCTALGLALNVPGSSSHDTLCTSCTGFPLSTRVPGAEECERAVIDFVAFQDISIKRLQRLLQALEAPEGWGPTPRAGRAALQLKLRRRLTELLGAQDGALLVRLLQALRVARMPGLERSVRERFLPVH
notes: also called Acro Bio TNB-H5255; not shown: The hIgG1 Fc at the C-terminus, and any linker, of the vendor reagent Acro Bio TNB-H5255

Legend:
TNFR2 ECD-Fc [1] = biological target: T1, TNFR2 ECD-Fc; assay: ELISA: plate coated with recombinant human LIGHT (2 µg/mL), Fc-tagged protein titrated 3-fold from 10 nM, anti-human Fc HRP, OD 450 nm background subtracted
Protocol: (§1) Briefly, Maxisorp 384 well plates (Thermo Nunc Cat #P6366-1CS) were coated with 25 μL of 2 μg/mL of recombinant human TNFSF ligands: TNFα (Acro Bio TNA-H5228), TL1A (Acro Bio TLA-H5244), FASL (Acro Bio HAL-H5241), or LIGHT (Acro Bio LIT-H5242) in PBS or were coated with PBS alone overnight at 4° C. The plates were washed 3 times with 0.1% PBS-T and incubated with SuperBlock blocking buffer (Thermo Fisher 37515) for 1 hour at room temperature with shaking at 400 RPM. […] Plates were incubated for 1 hour at room temperature with shaking at 400 RPM. ELISA plates were washed 3 times with 0.1% PBS-T and incubated with an anti-human Fc HRP conjugated secondary antibody (ThermoFisher Scientific Cat #H10307) 1:2000 in 0.1% PBS-T for 1 hour at room temperature with shaking at 400 RPM. The plates were washed 3 times with 0.1% PBS-T and incubated with 20 μL of TMB (ThermoFisher Scientific Cat #34028) per well. The reaction was stopped at 5 minutes by adding 20 μL of Stop Solution (BioFX LSTP-1000-01). […] Blank subtracted ODs were calculated by subtracting the ODs from the blank plate from the readings from each of the ligand plates and data was plotted using PRISM (version 10.0.2).

TNFR2 ECD-Fc [2] = biological target: T1, TNFR2 ECD-Fc; assay: ELISA: plate coated with recombinant human FASL (2 µg/mL), Fc-tagged protein titrated 3-fold from 10 nM, anti-human Fc HRP, OD 450 nm background subtracted
Protocol: as §1

TNFR2 ECD-Fc [3] = biological target: T1, TNFR2 ECD-Fc; assay: ELISA: plate coated with recombinant human TL1A (2 µg/mL), Fc-tagged protein titrated 3-fold from 10 nM, anti-human Fc HRP, OD 450 nm background subtracted
Protocol: as §1

[4] = biological target: B3; assay: as above
Protocol: as §1

[5] = biological target: B3; assay: as above; remark: listed apart in the source
Protocol: as §1

[6] = biological target: B3; assay: as above; remark: listed apart in the source
Protocol: as §1

[7] = biological target: B3; assay: as above; remark: listed apart in the source
Protocol: as §1

[8] = biological target: B1; assay: ELISA: plate coated with recombinant human LIGHT (2 µg/mL), Fc-tagged protein titrated 3-fold from 10 nM, anti-human Fc HRP, OD 450 nm background subtracted
Protocol: as §1

[9] = biological target: B2; assay: ELISA: plate coated with recombinant human FASL (2 µg/mL), Fc-tagged protein titrated 3-fold from 10 nM, anti-human Fc HRP, OD 450 nm background subtracted
Protocol: as §1

[10] = biological target: B2; assay: as above; remark: listed apart in the source
Protocol: as §1

[11] = biological target: B2; assay: as above; remark: listed apart in the source
Protocol: as §1

[12] = biological target: B2; assay: as above; remark: listed apart in the source
Protocol: as §1

[13] = biological target: B3; assay: ELISA: plate coated with recombinant human TL1A (2 µg/mL), Fc-tagged protein titrated 3-fold from 10 nM, anti-human Fc HRP, OD 450 nm background subtracted; remark: listed apart in the source
Protocol: as §1

[14] = biological target: B2; assay: ELISA: plate coated with recombinant human FASL (2 µg/mL), Fc-tagged protein titrated 3-fold from 10 nM, anti-human Fc HRP, OD 450 nm background subtracted; remark: listed apart in the source
Protocol: as §1

[15] = biological target: B1; assay: ELISA: plate coated with recombinant human LIGHT (2 µg/mL), Fc-tagged protein titrated 3-fold from 10 nM, anti-human Fc HRP, OD 450 nm background subtracted; remark: listed apart in the source
Protocol: as §1

[16] = biological target: B1; assay: as above; remark: listed apart in the source
Protocol: as §1

[17] = biological target: B1; assay: as above; remark: listed apart in the source
Protocol: as §1

[18] = biological target: B1; assay: as above; remark: listed apart in the source
Protocol: as §1

B1: no binding (tested: 10 nM (LOG[Dose] 1)) (TNFR2 ECD-Fc [1]).

B2: no binding (tested: 10 nM (LOG[Dose] 1)) (TNFR2 ECD-Fc [2]).

B3: no binding (tested: 10 nM (LOG[Dose] 1)) (TNFR2 ECD-Fc [3]).

With B4 the “EC50 (read off the curve)” value [4] was roughly 0.1 nM, the “EC50 (read off the curve)” value [5] was roughly 0.1 nM and the “EC50 (read off the curve)” value [6] was roughly 0.1 nM. For the same binder, the “EC50 (read off the curve)” value [7] was roughly 0.1 nM, the “EC50 (read off the curve)” value [8] was roughly 0.2 nM and the “EC50 (read off the curve)” value [9] was roughly 0.1 nM. The “EC50 (read off the curve)” value [10] was roughly 0.1 nM, the “EC50 (read off the curve)” value [11] was roughly 0.1 nM and the “EC50 (read off the curve)” value [12] was roughly 0.1 nM. For the same binder, the “EC50 (read off the curve)” value [13] was roughly 0.1 nM, the “EC50 (read off the curve)” value [14] was roughly 0.1 nM and the “EC50 (read off the curve)” value [15] was roughly 0.2 nM. For the same binder, the “EC50 (read off the curve)” value [16] was roughly 0.2 nM, the “EC50 (read off the curve)” value [17] was roughly 0.2 nM and the “EC50 (read off the curve)” value [18] was roughly 0.2 nM.

Source: patent US20250375499A1 (FLAGSHIP PIONEERING INNOVATIONS VII, published 2025)
